Test results from the domain aggregation screens of Martell et al. (2025).

experiment: soluble fraction after stress (log2 fold change); higher = more stays soluble; pooled small domains, quantitative proteomics; settings: stress: 50 degC
How it was run: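 Pooled custom libraries of small protein domains were each held under stress at 50°C. The read-out, high-throughput quantitative proteomics, tracked how much of each protein stayed soluble. This is reported as a base-two log fold change used to indicate aggregation propensity. Higher values mean more protein remains in solution.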

Sequence	soluble fraction (log2)
HMARTGSEELVGALATVREPLAPWGQVFVQGALWRARSADGGPVDAGQQVVVRAVEGLTLVVEPRD	0.00428
HMLEDIDNSIKKEIILEHYDKMLEFHGDYGAIIFRKLLHAYSKGYTGANEFRDLVNQISDKNIMRDLIESF	-1.19
HMKTRIQDLRKELGVTQSELADAVDVTRQTIISLEGGRYKASLVLAHKLAQFFHVTIEELFIFD	-2.21
HMNDRLFQILYLLLEKGTMTAPELSRALEVSVRTIYRDIDALSLAGVPVYATQGKNGGVSLLPNY	-1.24
HMTYQTVRYGSTGSAVRQLQSALNQKGYQLSEDGIFGAKTRAAVRDYQKKNGLLLDGIAGSQTWNHLMS	0.224
HMKISQSRKAGKLVLESELKRGGVSLDQYRGGRMSRILELIGVKSLNELLTDLGTGKKTGALVAERFFSGL	-0.444
HMAAEGARNNSLFNSLRERALEVSSHNELEQIAFKMNETNIPPLRASEVISVVNSVWKNRISNQIIP	0.155
HMEQFDFTILRELRKRAGLSIGEVSAESGVSAAVISKLERNRTRAELDTLYRLARVFGITAAELLNLAEA	-2.06
HMAEQDILQSVYPHIGGQDNVSRTISRNGTLYLMLKDASAVDLKAVKQVPGIADAALERGRLTLQLEE	0.0398
HMKLTTRQTEIINIVKAEQPISGEKIAQNLGLSRATLRNDLSILTMTGLLDAKPKVGYFYTGQ	-0.447
HMKVLNVLESEIVRLFKQGQQKDNIRDNIYKTHGQHYNNKKSFNVVFGRKWNSLLEQGFLES	-0.595
HMSSTSTKTQNIVHIVKSGETLSAIASKYGVSVDNIKKWNNLSSDKLSIGQKLKINPTTQTSS	0.245
HMTLGEHILQYRTARGWSQEDLANALEVSRQSVSKWETDASTPELDKIVRLSEIFQVSIDELVTGKA	0.108
HMSAEVSEIEIQRIISYYRNQNGVPDKYNEIFDRIAAQYTDEQLKVISNFLPSDVKQYLSFNNEKYKSLG	-0.295
HMGSKQVSVPDVRNLDYERASQQLREAGFVVGDVLRIRDDRAPAGTVIAQSPAAPALVPENARVSLLVSSG	0.251
HMFESQYIGKIATAITDISAFSGRLKIYDENWEARTLGEDAPEIKKGAKVKIVRHDDLTMFVEKK	-0.034
HMKTGTTGLIGEIGVVKKALTPEGKVFVHGELWRAVSKTASPEGTLVQVIKINNLVLEVEKV	-1.47
HMRPEVTEHLKTADAILHGGDINRQSIVDELRQYAPLYIVRGNNDKDWAEAIPHDLTVTLGGVTFFMVHNR	-0.0555
HMFQEGLVAPPAYTRPESFRGWEVPEILRSGNFPAIAKWQHEESLRLTRERRPAMLEAYERRT	0.121
HMGRFPSLTPVVIDALTAQYREHPGWTVQLHVDNLRVVLAANQTPLPSYPTIRRYLLAQGMRRQTRP	-0.426
HMATEWLSSKEAAQRLGVSAATLYAYVSRGLLRSEGSSGQRERRYRADDVAQLRRRREVGRKAESIAASTL	-0.433
HMHMSKKLADSISALRKKNGLSQEQLAEKIGISRQTVSNWERGIATPDVETLNLISKLFDEDLSVMING	0.199
HMTVIARQIPPLVPRMLDGLEAFIKLDVPFEEKERLARVQMLRSSLDRDNLDTAEIFRAVLEAYNIELQY	0.0196
HMEQVPEAVGRRVRQARSDRGWTLDQLAERSEVSRRMIVNVEAGTSNASIATLLRLATALNVGLAELVA	-1.41
HMDAEELNSKAKDEFTWLEDDESETNLEYRKMVSSEDMAIVAKVAPALAAKLKYQLAHAATNMV	0.0207
HMKTVLDSLLRILDSKELDIVVLRHIVGLTLTEIAKEKDMKKGTVFWMYNRAVKKLRLESERMGL	-2.11

Sequence	soluble fraction (log2)
HMPERMLEPLLNGNEIMKVTQLQPGPKVGLIRDALLQAQISGDVTDTESAKAFVQDYAKRNI	0.06
HMQVITEPFQEKYREFINMSTVTQRLEERETLSFTAQTVEGRWLTIIIVPQGYDKTGKLSTVLVANR	0.179
HMPAERLSMRKIYEILRLKYGHGLSNREVALSVSVSRSTVADYLLRAQAAGLSWPLPDGLDETGLEQRLFP	-2.02
HMAKDEYGLTSNQRAFADEYIRNKGNATQAYLFAYPHIKKENTAAVNASRLLRNAKVSKYIADRTKEIL	0.287
HMSMPEVLSDRELEIFRMIGTGMSTGDIAKKLNISVNTIESHRKKIKDKLGIQKGSELVKAAVQWVSTQQ	-0.262
HMDRDMGSMTDFENVRDAYLTGKVWNVGDLIEANGITGIIIRKGTNYVSYNDGDGKVHKAWLHDITL	-0.886
HMESLSHRQKSIVDWVQKNGYASIERMAEQFEVSAQTIRRDVIELSERRILQRHHGGASLPAG	-0.0143
HMHDYYDSIDAVTHDKSYESNLVFALKLGYTETQLQKALLKLGKKAREDQILEELIRIQKSSKA	0.114
HMDIVIPIQVKNVSSGEVLDFPSIRAAARDLKFPKTTISLGVRYAGEKAYKGFVMRYRSDDPWPIVQES	-1.93
HMDAPRFAAGDAVRVAGLVSKPQHNGRAGSVLSYDPVSLRYIVKVDGEDEPLKLKPENVLMPA	0.136
HMPATTMMVVVDRDLPYGHVLTDRDVRLETRRATSPGASVAFTSIDPVLGQSLTRPLGAGTPVGRADLR	-0.155
HMNNESEGAIMLRQYSSLSAYLTKYNIDVNSKKAQQYASSLKLAQEKGSAEGQKYLSSISSELDD	-0.158
HMLDSDARRRGLIEYLSLNGYATMRQLAGEFDVSINTIQRDITYLARYYPLETAYGRYGGGVYFEQNWQ	-1.56
HMNSNISYSEFLSQVEKGTINSVEITGNSIKGIYADGGEFITFSPGDPGLIDKLQRSDIEILATPPA	-0.104
HMIDQNEDLLSGYIDEVLSQNPDKVNEYLKGKSGLIGFFMGQIKQKSATALDAALLKSQLETALEKLRIK	0.059
HMSKQKRIKYFLSILNIKSIKQFRKKDLDYFYQKRFIEIQKSSKDKKLVSNQLIELNAAKEYLDEIDFEN	-1.93
HMKSISMANGNVQLRINGVLASSLEVAALSPEDIKRVEYHDNPGLRYGEGIDIVLDYITIKRT	-0.384
HMALPQPDDDRQDTKKRILDMAEDLLLTRGFNAFSYQHISSELGMKNAAIHYHYPKKNDLGVAVIQRYRRR	0.151
HMRMETRILTADESGIRLDAFLASRLAVSRSLAASLIDDGNVTLNGTVPKKKTAVNVGDILEVAMP	-0.234
HMIAASQVLRDARQRSRLTQAELGRRADVPQSVISAYESARREPSVDMLARLVAAAGFDLRIGLTP	-0.541
HMDDIVPHSTKNHIIKTFLSLMNSLDIITDKNKKSLNQNVHIIFNKFNFSKKEANLFIGVLNRIQKALK	0.552
HMVTKTTYAYERLKREIMDGTLGQGEKLVVNAISQRYQVSPMPIREALLKLEQEGLVQSAPHRGAWVHK	-0.345
HMSGHEVMVQRITAIIAELYQYGFVSRKKMMDEFNISERTLYRDLNRLGDRIVPDGDGIYRLAPAYA	-1.55
HMPNNNDIVLDRVSFGYHEKEVLHGIDMTIREGTVNALVGPSGSGKSTIAKLIAGLWDVDGGSISF	0.154
HMGSKKITIYVSGEVKNPGIVTLNSDQRLASAVEKLGGVTENADMNNINLAMKLEDEMHYIIPKKGEK	0.28
HMDDLFGNAIEMFNNQRYDMTYELLVQLLSETPNNEKAWQLLADTKFMLGDYDDALHIVGKAAK	-0.89

Sequence	soluble fraction (log2)
HMGSLGRAIRSRREKMKVGLEELAAKTGLSESHISDIEEGRGFAPVGDILKIARALTIDPGELLK	0.361
HMRTYYEILGVSKNASLHEIQKAYRELALKYHPKNNSDPTAEEKFTQINEAYTHLSDAARRRSYDDL	0.222
HMKITFNPVSSGRLDIILAEKTGYTRSYVKQLVEKQAVTINGEAAKKSGQNVKAGDEIALDEP	0.0957
HMAPRLTERERQVLQLIAEGLTSMQIGDRLHIAASTVDVHRRNLMRKLDLHNVADLTRYAITQGISP	-0.0624
HMSSDEEQLATLTRLLQKQEQIIQTLGPRNPMVSLQQYANTITKVIEMAGFKDTSQFINSQIP	-0.0471
HMGEQVAVPDVTKKSVREVNNILTSAGLRLQIEGSGISVRQDPPADTMVAPDTVVTVSFEPP	0.168
HMSAEDQRRASQEAAYRFMQVMAGNEAGFEDAARALFAGDNHRFEVLIQSWPDDVRDHVSLLSVDAFA	-0.615
HMDGVPPAGSRIRLTVSTQVGDKEFEGTLVPPAGVDLLTLKLANGYNLSHSIADVREVVLIEEGLQGEEP	-0.0515
HMILNDRSELLDVVKRVIAANPASVADYRKGKKKVLGFLVGQAMKETKGQADPRILNELFLQELGEN	0.0223
HMPRYQQIARQLKTAIEHGELKPGARLPSSRTWSQELGISRSTVESAYTELVAQGWLERRGQAGTFVSAQL	-0.749
HMITMWYYKKDGNIIGPASARKIASMRELGIITDSTPVSRKRNAKNWETFGGLSEKINLESSQWD	-1.9
HMSQYVPDPVLNAALVGYLDFRKQAGKPMTDYSIRLLLVDLAKLSGNPQEQAAILDQSTKNNWIGVYALG	-2.87
HMDLPAEFSKPELETLFKRGKQSGELSLTEVRDALEAAQLPNKKTQTKVLKVLSDNAIHVLMDG	0.146
HMWKQISSEAELLPAVRSVIQANPGEAEKLRNGEMAPLEFLTGLVMKKTNGMAVPQIVKTLIKKELKI	0.00479
HMNKEHINLDSSKFLSLLNKTKISMSNDETRHYLNGIYIHPTVSNKSSYLTGVATDSHRLSSSSIPVD	0.121
HMNVDALVGMPARVTRAFVQGAGEVKLDNGETWTARLSAGVTDAEASVGQTVSVIAVRGAAVEVAPE	0.0386
HMQNSYSVEDLALKAGLSVDTIRYYQGLDLIAPPQKNGRRAIYGDEHLSRLDEIKKLALEGFSLRQISLLK	-0.652
HMIKRITDEQHPVDVDRLLVVTFTNAAASEMRERIGDAIEAALEKDPYNQHLQRQLTLVHNAQITTIDS	-0.0115
HMDGLTEQQADDILAFISIKGTNAEVLAALENYAGRNETFDTGLSELKVVASNLAAFGMPEENFVVDL	0.0102
HMEVAASEQRDNLWALARRVLSGEQYDVLYLRYVEDFSVAQIADVVGKTQTHVKVLLFRGRNNLGSRLRS	0.199
HMKPFVVVPIDQVRVGMFIQLDLGWMQHPFPVGSFRVASEAQIDTLRSLDLESVRYLPAKSDPAFQQP	-2.1
HMSEQSEALRTGLDQLPINQRTALTLFHLHELNQSEVAKIMNISVGAVESLLFRGRQKMKQLLTSD	-0.725
HMADPAVLIAELFRAMPEKRFSVKNLISATGAETREQKDYVREVVHSLSREGMIEQVAEGKYRLSASE	0.171
HMLNSISIKTNKKIDFLEKNEHLVNFVYEKETMEHIYNLSYENKKDLQELQNKLSDIEGIIKINTDL	0.133
